Assay [1] has as its system H1703 non-small cell lung cancer cells. As to the kind of experiment: Killing of paclitaxel treated H1703 cells by CER21+ human primary B cells. The assay is classed as cell-based. Conditions: Paclitaxel 30 μM, target:effector 5:1, 3 hours, vs EGFRt B cells. The method, then:
Human primary B cells were transduced with pLenti Tim4-TLR8 (CER21) lentivirus expressing truncated EGFR as a transduction marker and stained with CELLTRACE Violet as described in Example 1. One day prior to setting up a co-culture assay, H1703 non-small cell lung cancer cells were incubated with phosphatidylserine inducing chemotherapy Paclitaxel (30 μM) in serum-free media for 24 hours. Floating and adherent H1703 cells were collected, centrifuged, incubated with pHrodo red (1 ng/μL) for 15 minutes at room temperature in PBS, washed, and then plated in a non-adherent 96 well plate. Human CER21+ B cells and H1703 cells were co-cultured at a target cell to effector cell ratio of 5:1 at 37° C. for 3 hours. B cells transduced with truncated EGFR were used as control. The plate was then imaged using a 20X objective, Keyence BZ-X710 microscope (FIG. 21). Cells undergoing apoptosis show increasing Red fluorescence as the intracellular pH drops in the earliest stages of apoptosis (FIG. 21, top row). Adjacent cells not induced by Paclitaxel treatment remain only dimly fluorescent. Apoptotic measurements in the presence of CER21+ B cells were quantified as the Area under the Curve of red fluorescent objects and outlined in blue using automated software (FIG. 21, bottom row; FIG. 22), for each high powered field. White arrows show apoptosis events.

Assay [2] concerns H1975 EGFR+/Luciferase+ cells. As to the kind of experiment: Adoptive transfer of CER T cells with EGFR inhibitor in H1975 xenograft. The format is in vivo, immunodeficient (NSG) mice. The note with it: Osimeritinib 1 mg/kg intraperitoneally + 10e6 CER-transduced human T cells, NSG mice. The method, then: The combination of CER therapy and EGFR inhibitor therapy was also evaluated in vivo. […] H1975 EGFR+/Luciferase^+ cells were engrafted into immunodeficient (NSG) mice 14 days prior to initiation of study and evaluated for engraftment by bioluminescent emission and tumor volume seven days later. The day prior to CER adoptive transfer (day-1), animals with established tumors were randomized into groups and treated with Osimeritinib 1 mg/kg (intraperitoneally) and then infused by tail vein with 10e6 CER-transduced human T cells. Animals received 10 μg of systemic IL-2 every 24 hours×3 days following cell infusion and then monitored for tumor progression and cell expansion and persistence thereafter. Tumor volume measurements were obtained post-adoptive transfer in untreated, Osimeritinib treated (1 mg/kg)+mock-transduced T cells (vector only), and Osimeritinib (1 mg/kg)+CER122-transduced T cells (n=5/group) (FIG. 79).

Here are results for two molecules from patent US11708423B2, “Chimeric engulfment receptor molecules and methods of use” (CERO THERAPEUTICS, INC., priority 2017, dated 2023).

B1: CER21: Tim4 binding and transmembrane domains, TLR8 signaling domain; SEQ ID NO:88 (protein)
chain: MSKGLLLLWLVTELWWLYLTPAASEDTIIGFLGQPVTLPCHYLSWSQSRNSMCWGKGSCPNSKCNAELLRTDGTRIISRKSTKYTLLGKVQFGEVSLTISNTNRGDSGVYCCRIEVPGWFNDVKKNVRLELRRATTTKKPTTTTRPTTTPYVTTTTPELLPTTVMTTSVLPTTTPPQTLATTAFSTAVTTCPSTTPGSFSQETTKGSAFTTESETLPASNHSQRSMMTISTDIAVLRPTGSNPGILPSTSQLTTQKTTLTTSESLQKTTKSHQINSRQTILIIACCVGFVLMVLLFLAFLHHLFYWDVWFIYNVCLAKVKGYRSLSTSQTFYDAYISYDTKDASVTDWVINELRYHLEESRDKNVLLCLEERDWDPGLAIIDNLMQSINQSKKTVFVLTKKYAKSWNFKTAFYLALQRLMDENMDVIIFILLEPVLQHSQYLRLRQRICKSSILQWPDNPKAEGLFWQTLRNVVLTENDSRYNNMYVDSIKQY
modifications: CER21 chimeric engulfment receptor
For the molecule B1, the “killing of paclitaxel treated H1703 cells (apoptotic object area)” value in assay [1] is “enhance killing of target cells at sub-therapeutic dose of chemotherapy”.

B2: CER122: Tim4 binding and transmembrane domains, TLR2 primary and DAP12 secondary signaling domains; SEQ ID NO:149 (protein)
chain: MSKGLLLLWLVTELWWLYLTPAASEDTIIGFLGQPVTLPCHYLSWSQSRNSMCWGKGSCPNSKCNAELLRTDGTRIISRKSTKYTLLGKVQFGEVSLTISNTNRGDSGVYCCRIEVPGWFNDVKKNVRLELRRATTTKKPTTTTRPTTTPYVTTTTPELLPTTVMTTSVLPTTTPPQTLATTAFSTAVTTCPSTTPGSFSQETTKGSAFTTESETLPASNHSQRSMMTISTDIAVLRPTGSNPGILPSTSQLTTQKTTLTTSESLQKTTKSHQINSRQTILIIACCVGFVLMVLLFLAFLHRFHGLWYMKMMWAWLQAKRKPRKAPSRNICYDAFVSYSERDAYWVENLMVQELENFNPPFKLCLHKRDFIPGKWIIDNIIDSIEKSHKTVFVLSENFVKSEWCKYELDFSHFRLFDENNDAAILILLEPIEKKAIPQRFCKLRKIMNTKTYLEWPMDEAQREGFWVNLRAAIKSYFLGRLVPRGRGAAEAATRKQRITETESPYQELQGQRSDVYSDLNTQRPYYK
modifications: CER122 protein
For the molecule B2, the “anti-tumor response (tumor volume)” value in assay [2] is listed as “enhanced anti-tumor responses in EGFR+NSCLC model in vivo”.
